The labels stand for the following.
B1: CPEB3 Ribozyme (parent)
chain: GGGGGCCACAGCAGAAGCGUUCACGUCGCGGCCCCUGUCAGAUUCUGGUGAAUCUGCGAAUUCUGCUGU

Variants of B1 are the subject of the data set. The experiment in a line: self-cleavage, relative activity (ratio to wild type); higher = more cleavage; co-transcriptional.
As for A13G U20G, the self-cleavage is 0.0546. As to A13G U53A, the self-cleavage was 0.87.

Turning to A13G U53G, the self-cleavage stood at 0.737. Turning to A13G U53C, the self-cleavage was 0.628. A13G U46A: the self-cleavage stood at 1.02.

For the variant A13G U46G, the self-cleavage came out at 0.979. On to A13U C66A, for which the self-cleavage turned out to be 0.323. As for A13U C66U, the self-cleavage is 0.583.

As for G14A A15C, the self-cleavage amounted to 0.305.

Regarding A13U A60G, the self-cleavage amounted to 0.398. A13U A60U: the self-cleavage amounted to 0.356. In the case of G14A A40C, the self-cleavage was 0.234.

G14A A40G: the self-cleavage turned out to be 0.495.

Take G14A G25C: the self-cleavage was 0.105. G14A G25U: the self-cleavage stood at 0.0915. Take G14A G25A: the self-cleavage was 0.156.

Take G14A A60C: the self-cleavage was 0.28. For G14A A60U, the self-cleavage is 0.23.

Take G14A A60G: the self-cleavage is 0.358.

Turning to A13U U36A, the self-cleavage came to 0.121.

On to A13U U36G, for which the self-cleavage came out at 0.136. Turning to G14A C27U, the self-cleavage was 0.134. To G14A C27A belongs 0.14; to A13U G28A, 0.134.

Regarding A13U G28C, the self-cleavage amounted to 0.125. With A13U A40G, the self-cleavage turned out to be 0.607.

As for A13U C34G, the self-cleavage amounted to 0.309. In the case of A13U C34A, the self-cleavage came out at 0.704. A13C U53A: the self-cleavage was 0.579. The result for G14A G56A reads 0.466; that for A13G A52C, 0.827; that for A13G A52G, 1.02.

A13G U49A: the self-cleavage amounted to 0.95. To A13U G19C belongs 0.133; to A13U G19A, 0.145; to A13U G19U, 0.15. In the case of G14A A52U, the self-cleavage amounted to 0.643. To G14A A52C belongs 0.688; to G14A C22G, 0.166; to A13G U38C, 0.938. To A13G U38A belongs 0.898; to A13G U38G, 0.149; to A13U G65C, 0.417. Regarding A13U G65U, the self-cleavage stood at 0.419. Take A13U G65A: the self-cleavage stood at 0.513. Take A13G U69C: the self-cleavage turned out to be 1.04. The result for A13G U69G reads 1.01; that for A13C U46C, 0.761. As to A13U G48C, the self-cleavage was 0.872. As for A13U G48U, the self-cleavage was found to be 0.916.

For G14A G37A, the self-cleavage is 0.191. As for A13C G58U, the self-cleavage is 0.933. As to A13C G58A, the self-cleavage stood at 0.754. Regarding A13C G58C, the self-cleavage amounted to 0.862.

Regarding G14A C54A, the self-cleavage was 0.239. For G14A G48A, the self-cleavage is 0.868.

Regarding G14A G48C, the self-cleavage was found to be 0.836. Take G14A G48U: the self-cleavage worked out at 0.943.

With A13G G17A, the self-cleavage was determined as 0.0885. As for A13G G17U, the self-cleavage came to 0.214. A13G U55G: the self-cleavage is 0.51. For A13G U55C, the self-cleavage turned out to be 0.621. In the case of G14A C45A, the self-cleavage came out at 0.612.

Take G14A C45G: the self-cleavage was 0.638. Consider G14A C45U, for which the self-cleavage worked out at 0.778. Regarding A13C U36C, the self-cleavage was 0.62.

For the variant A13U U44G, the self-cleavage was 0.575. The result for A13U U44C reads 0.345; that for A13G A51C, 0.874; that for A13G C34A, 0.797. Turning to A13G C34U, the self-cleavage turned out to be 1.02. The result for A13G C34G reads 0.293; that for A13C G56C, 0.367; that for A13C G56U, 0.51. In the case of A13C G56A, the self-cleavage was 0.625. The result for A13G A40U reads 0.455; that for A13G A40G, 0.831; that for A13U A59G, 0.784. Turning to A13U A59C, the self-cleavage stood at 0.33. As to A13U A16U, the self-cleavage came out at 0.34. As for A13U A16C, the self-cleavage was found to be 0.14. To A13U A16G belongs 0.589. As to A13U U55A, the self-cleavage came out at 0.246. To A13U U55G belongs 0.234; to A13G U26G, 0.935. As to A13G U26C, the self-cleavage is 0.78. In the case of A13U U62A, the self-cleavage is 0.438. As to A13U C24U, the self-cleavage was determined as 0.364. Take A13U C24A: the self-cleavage is 0.301.

For A13U C54A, the self-cleavage was 0.29. In the case of A13U C54U, the self-cleavage came out at 0.729. A13C U20A: the self-cleavage worked out at 0.149. The result for A13C U20C reads 0.128.

With A13C U43A, the self-cleavage amounted to 0.514. Turning to A13C U43G, the self-cleavage was 0.32. Consider A13G G25U, for which the self-cleavage was 0.118. The result for A13G G25C reads 0.135; that for A13G G25A, 0.186; that for G14A C34A, 0.419.

Turning to G14A C34G, the self-cleavage was 0.23. For A13U U64G, the self-cleavage was determined as 0.969. On to A13U U64A, for which the self-cleavage worked out at 0.945. For the variant A13U U64C, the self-cleavage amounted to 0.853.

Consider A13G U44G, for which the self-cleavage came out at 0.826. A13G A59G: the self-cleavage was determined as 0.946. On to A13G A59U, for which the self-cleavage turned out to be 0.57. As for A13G A59C, the self-cleavage was determined as 0.522. With A13G A23C, the self-cleavage worked out at 0.781. With A13C U26C, the self-cleavage was 0.692. As for A13C U26A, the self-cleavage came to 0.615. Turning to A13C U26G, the self-cleavage amounted to 0.113. The result for G14A G19C reads 0.106; that for G14A G19A, 0.16. In the case of G14A A51C, the self-cleavage turned out to be 0.486. To G14A A51U belongs 0.75; to A13U U38A, 0.609. For A13U U38C, the self-cleavage came out at 0.704. Regarding A13U U38G, the self-cleavage was found to be 0.198. Consider A13G C45A, for which the self-cleavage was 0.889. The result for A13G C45U reads 0.917; that for A13U U49C, 0.78; that for A13G U21A, 0.966. Turning to A13G U21G, the self-cleavage came out at 0.355. The result for A13G U21C reads 0.74; that for A13U G68A, 0.903. In the case of A13U G68U, the self-cleavage is 0.886. Take A13U G68C: the self-cleavage is 0.841.

As for A13G G14A, the self-cleavage was determined as 0.276. Regarding A13G G14U, the self-cleavage was determined as 0.146.

With A13G G14C, the self-cleavage worked out at 0.255. As to A13G C33G, the self-cleavage is 0.638. Consider A13G U67C, for which the self-cleavage is 0.94. With A13G U67A, the self-cleavage amounted to 0.889. As for A13U C18G, the self-cleavage came to 0.119.

Regarding A13U C18U, the self-cleavage worked out at 0.19. To A13C U67G belongs 0.824. Take A13U G30U: the self-cleavage turned out to be 0.228. Take A13U G30C: the self-cleavage came to 0.393. The result for A13U G30A reads 0.487; that for A13U C32G, 0.229; that for A13U C32A, 0.542.

As to A13U C57G, the self-cleavage came out at 0.226. To A13U C57U belongs 0.308; to A13U U43A, 0.31; to A13U U43C, 0.678.

In the case of A13G G56U, the self-cleavage was determined as 0.742.

A13G G56C: the self-cleavage worked out at 0.421.

Consider A13G G56A, for which the self-cleavage was determined as 0.934. To A13G G47U belongs 1.06; to A13G G47A, 0.994. Take G14A G17U: the self-cleavage is 0.111. Regarding G14A G30A, the self-cleavage stood at 0.235. Turning to A13U G14A, the self-cleavage was determined as 0.328.

For A13U G14U, the self-cleavage is 0.437.

For A13C U64G, the self-cleavage worked out at 0.922. Take A13C U64A: the self-cleavage turned out to be 0.948.

As for A13G U36A, the self-cleavage was 0.222.

On to A13G U36C, for which the self-cleavage was 0.816. With G14A C24U, the self-cleavage came to 0.2. Regarding G14A C24A, the self-cleavage was 0.238. Consider A13G C39G, for which the self-cleavage stood at 0.758.

A13G C39U: the self-cleavage was 0.8. A13U U67C: the self-cleavage was determined as 0.66. Regarding A13U U67A, the self-cleavage stood at 0.629. Regarding G14A C33A, the self-cleavage was 0.519. For the variant A13G C22G, the self-cleavage came to 0.199.

With A13C U61C, the self-cleavage was determined as 0.281.

For the origin of these results see the RNAGym collection of RNA variant scans (doi:10.7554/elife.80360).
